From paper PMC8406324, “Structural Basis for a Neutralizing Antibody Response Elicited by a Recombinant Hantaan Virus Gn Immunogen” (mBio, 2021)

Target: T1, recombinant HTNV Gn ectodomain (residues 18 to 371) (Hantaan virus (Orthohantavirus …))
T1 construct: also called N-terminal ectodomain of HTNV Gn; soluble HTNV Gn ectodomain
Test: crystal structure
Settings: both partners purified

B1: Fab nnHTN-Gn2 (Fab, V domains shown)
VH: QSLEESGGRLVTPGTPLTLTCTVSGFSLSNYNMQWVRQAPGKGLEWIGIVYTGGVAWYARWAKGRFTISRTSTTVDLKITSPTTEDTATYFCARAYTSNSDIVFDPWGPGTLVTVSS
VL: GQVLTQTPASVSAAVGGTVTIKCQASQSVSTALAWYQQKPGQRPKLLIYLASTLTSGVPSRFKGSGSGTEFTLTISGVECDDAATYYCQQGYSYSNVDNSFGGGTEVVVK
notes: also called Fab nnHTNV-Gn2
B1: binds.

B2: Fab HTN-Gn1 (Fab, V domains shown)
VH: QSLVESGGDLVKPEGSLTLTCTASGFSFSSTHWICWVRQAPGKGLEWIACIYVGNTYDSYYANWAKGRFTISKTSSTTVTLQMTTLTAADTATYFCARSGSVFGVVSLWGPGTLVTVSS
VL: GQVLTQTPASVSEPVEGTVTIKCQASQSINNWLSWYQQRPGQPPKLLIYDASTVASGVSSRFKGSGSGTEFTLTISDLECADAATYACQSYGYGISITDNSAFGGGTEVVVR
notes: also called HTN-Gn1-Fab; HTNV-Gn1-Fab
B2: binds.
